Results from patent publication US20230181754A1 (BRIGHT PEAK THERAPEUTICS, published 2023).

Legend:
[1] = target: T1, recombinant biotinylated human Fc gamma receptor I (FcγRI/CD64) (human, UniProt P12314 16-288, limits assumed, biotinylated); assay: AlphaLISA competition: free antibody competes with human IgG Fc on acceptor beads for biotinylated human FcγRI on streptavidin donor beads
T1 construct: also called FcγR1

[2] = target: T2, recombinant biotinylated human Fc gamma receptor IIa (FcγRIIa/CD32a 167H) (human, UniProt P12318 36-218, limits assumed, biotinylated); assay: AlphaLISA competition: free antibody competes with human IgG Fc on acceptor beads for biotinylated human FcγRIIa on streptavidin donor beads
T2 sequence (looked up): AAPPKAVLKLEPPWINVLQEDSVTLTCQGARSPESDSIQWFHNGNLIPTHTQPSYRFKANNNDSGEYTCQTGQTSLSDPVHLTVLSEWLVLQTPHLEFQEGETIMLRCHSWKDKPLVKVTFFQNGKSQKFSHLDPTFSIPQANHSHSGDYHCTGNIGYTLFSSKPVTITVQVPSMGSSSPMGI

T1 sequence (P12314 16-288 limits assumed): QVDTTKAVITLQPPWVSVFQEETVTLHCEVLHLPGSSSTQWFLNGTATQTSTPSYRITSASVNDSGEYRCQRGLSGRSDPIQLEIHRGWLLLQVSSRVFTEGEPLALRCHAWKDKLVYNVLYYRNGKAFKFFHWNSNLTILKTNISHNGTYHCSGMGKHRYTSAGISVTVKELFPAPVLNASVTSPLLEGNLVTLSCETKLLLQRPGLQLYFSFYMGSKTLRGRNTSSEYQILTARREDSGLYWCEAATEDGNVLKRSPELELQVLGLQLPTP

binding result [1]: binds | IC50 (read off the curve) [2]: ~400 nM
B1: Durvalumab (unmodified anti-PD-L1 antibody) (antibody, human IgG1, kappa)
heavy: EVQLVESGGGLVQPGGSLRLSCAASGFTFSRYWMSWVRQAPGKGLEWVANIKQDGSEKYYVDSVKGRFTISRDNAKNSLYLQMNSLRAEDTAVYYCAREGGWFGELAFDYWGQGTLVTVSSASTKGPSVFPLAPSSKSTSGGTAALGCLVKDYFPEPVTVSWNSGALTSGVHTFPAVLQSSGLYSLSSVVTVPSSSLGTQTYICNVNHKPSNTKVDKRVEPKSCDKTHTCPPCPAPEFEGGPSVFLFPPKPKDTLMISRTPEVTCVVVDVSHEDPEVKFNWYVDGVEVHNAKTKPREEQYNSTYRVVSVLTVLHQDWLNGKEYKCKVSNKALPASIEKTISKAKGQPREPQVYTLPPSREEMTKNQVSLTCLVKGFYPSDIAVEWESNGQPENNYKTTPPVLDSDGSFFLYSKLTVDKSRWQQGNVFSCSVMHEALHNHYTQKSLSLSPGK
light: EIVLTQSPGTLSLSPGERATLSCRASQRVSSSYLAWYQQKPGQAPRLLIYDASSRATGIPDRFSGSGSGTDFTLTISRLEPEDFAVYYCQQYGSLPWTFGQGTKVEIKRTVAAPSVFIFPPSDEQLKSGTASVVCLLNNFYPREAKVQWKVDNALQSGNSQESVTEQDSKDSTYSLSSTLTLSKADYEKHKVYACEVTHQGLSSPVTKSFNRGEC
notes: also called Imfinzi; MEDI-4736
